The target in the assay is LexA-DP-1 (pLEX(HIS).DP-1): complete bacterial LexA protein fused to DP-1 from residue 59 to 410 (bacterial; murine) (UniProt Q08639).

Turning to “GAD-E2F-5 (pGAD.E2F-5): entire murine E2F-5 as a hybrid with the activation domain of the yeast GAL4 protein (768-881) (from UniProt P04386)”, the transcriptional activity of the E2F site reporter p4x WT CYC1 in yeast is greater than 6 fold.

For the origin of these results see patent publication US20030022260A1.
